Reference: US20180037663A1 (OHIO STATE INNOVATION FOUNDATION, published 2018)

Target: T1, bovine submaxillary mucin (bovine)
T1 construct: Used as surrogate antigen for TAG-72; also called BSM
Test: binding study of FIG. 14 (inhibition dot blot), compared with 3E8.IgG

- fold worse binder than 3E8.IgG: ~16 fold
B1: 3E8.scFv (scFv)
scFv: GSSGDIVMTQSPDSLAVSLGERATINCKSSQSVLYSSNNKNYLAWYQQKPGQPPKLLIYWASTRESGVPDRFSGSGSGTDFTLTISSLQAEDVAVYYCQQYYSYPLTFGGGTKVEIKLSADDAKKDAAKKDDAKKDDAKKDLQVQLVQSGAEVKKPGASVKVSCKASGYTFTDHAIHWVRQAPGQRLEWMGYFSPGNDDFKYSQKFQGRVTITADKSASTAYMELSSLRSEDTAVYYCARSWIMQYWGQGTLVTVSS
notes: Monomeric scFv purified from the E. coli periplasm; Labelled at lysines with fluorescein (dot blots) or biotin (HRP dot blot, IHC); also called scFv of 3E8; single chain variable fragment of 3E8
